The record followed here is PMC9922282, “Small molecule inhibitors of 15-PGDH exploit a physiologic induced-fit closing system” (Nature Communications, 2023).

The target of data set [1] is T1, 15-PGDH (Homo sapiens, UniProt P15428).
T1 construct: gene HPGD; recombinant human 15-PGDH with C-terminal TEV-cleavable 6xHis tag, homodimer
T1 sequence (P15428 1-256): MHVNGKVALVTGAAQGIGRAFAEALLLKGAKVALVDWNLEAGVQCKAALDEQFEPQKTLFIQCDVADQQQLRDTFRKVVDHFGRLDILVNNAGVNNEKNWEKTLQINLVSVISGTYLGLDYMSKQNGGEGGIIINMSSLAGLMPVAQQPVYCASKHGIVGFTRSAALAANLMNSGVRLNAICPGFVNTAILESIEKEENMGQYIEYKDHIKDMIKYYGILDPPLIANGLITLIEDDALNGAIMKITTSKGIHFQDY
Description: cryo-EM structure of the 15-PGDH-NADH complex ([…] Å); thermal shift. The format is binding.

Substrate in data set [2]: CCCCC[C@H](O)/C=C/[C@H]1[C@H](O)CC(=O)[C@@H]1C/C=C\CCCC(=O)O
As to the kind of experiment: Michaelis-Menten kinetics of PGE2 oxidation (Km). The class given is biochemical, Homo sapiens. The conditions noted are these: NAD+ active site.

Take `NC(=O)C1=CN([C@@H]2O[C@H](COP(=O)(O)OP(=O)(O)OC[C@H]3O[C@@H](n4cnc5c(N)ncnc54)[C@H](O)[C@@H]3O)[C@@H](O)[C@H]2O)C=CC1` [NADH]: in data set [1], the “cryo-EM structure of the 15-PGDH-NADH complex (3.3 Å); thermal shift” value is given as “we employed cryo-EM to solve the structure of the 15-PGDH-NADH complex in the absence of inhibitor”.

B1: 15-PGDH (Homo sapiens) (protein)
chain: MHVNGKVALVTGAAQGIGRAFAEALLLKGAKVALVDWNLEAGVQCKAALDEQFEPQKTLFIQCDVADQQQLRDTFRKVVDHFGRLDILVNNAGVNNEKNWEKTLQINLVSVISGTYLGLDYMSKQNGGEGGIIINMSSLAGLMPVAQQPVYCASKHGIVGFTRSAALAANLMNSGVRLNAICPGFVNTAILESIEKEENMGQYIEYKDHIKDMIKYYGILDPPLIANGLITLIEDDALNGAIMKITTSKGIHFQDYDTTPFQAKTQ
notes: recombinant human 15-PGDH with C-terminal TEV-cleavable 6xHis tag
For B1, in data set [2], the Km (usually the concentration of substrate that gives half-maximal velocity) was determined as 2.2 µM.

B2: 15-PGDH (Homo sapiens; Y217A) (protein)
chain: MHVNGKVALVTGAAQGIGRAFAEALLLKGAKVALVDWNLEAGVQCKAALDEQFEPQKTLFIQCDVADQQQLRDTFRKVVDHFGRLDILVNNAGVNNEKNWEKTLQINLVSVISGTYLGLDYMSKQNGGEGGIIINMSSLAGLMPVAQQPVYCASKHGIVGFTRSAALAANLMNSGVRLNAICPGFVNTAILESIEKEENMGQYIEYKDHIKDMIKYAGILDPPLIANGLITLIEDDALNGAIMKITTSKGIHFQDYDTTPFQAKTQ
notes: as for B1
As to B2, in data set [2], the Km stood at 11 µM.
